Test results from US20250230211A1 (NANTCELL, published 2025).

Key:
[1] = molecular target: T1, murine CTLA4 (murine, UniProt P09793 36-161, limits assumed); experiment: SPR, antibody captured by anti-human IgG Fc, analyte by OneStep injection at 40 nM and 20 nM
T1 construct: also called Mouse CTLA4
Method: (§1) Surface plasmon resonance (SPR) studies were conducted with the purified fusion proteins to assess their binding affinities to relevant targets. The SPR kinetic assay was performed by immobilizing rabbit α-human IgG Fc antibodies (Thermo) on a PCH sensor (Sartorius) as the capture molecule. All molecules of interest were then captured on the sensor surface by α-IgG1-Fc and Fc domain interaction. Binding kinetics against IL-2Rβ, human CTLA4, and murine CTLA4 were determined by OneStep injection at 40 nM and 20 nM of each analyte. […] The αCTLA4-scFv has higher affinity to CTLA4 than when the binding domain is in IgG form.

[2] = molecular target: T2, human CTLA4 (human, UniProt P16410 36-161); experiment: as above
T2 sequence (looked up): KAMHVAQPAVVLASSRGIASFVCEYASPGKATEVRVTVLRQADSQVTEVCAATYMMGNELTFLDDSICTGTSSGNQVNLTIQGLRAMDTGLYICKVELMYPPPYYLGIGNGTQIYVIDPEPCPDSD
Method: as §1

- Kd [1]: 0.13 to 2.1 nM
- Kd [2]: 1.1 to 1.6 nM
B1: αCTLA4-7 (antibody, human IgG1, kappa, V domains shown)
VH: EVQLVESGGGLVQPGGSLRLSCAASGFTFTSYSMHWVRQAPGKGLEWVSGISGSGRSTSYADSVKGRFTISRDNSKNTLYLQMNSLRAEDTAVYYCARDLMAFNLVRAGGFDVWGQGTLVTVSS
VL: DIQMTQSPSSLSASVGDRVTITCQASQDISNYLNWYQQKPGKAPKLLIYDASNLETGVPSRFSGSGSGTDFTFTISSLQPEDIATYYCQQGDAWPWTFGQGTKVEIKR
